How the values were obtained:
[1] = target: T1, ICU11, recombinant, GST- or MBP-tagged (pull-down) (Arabidopsis thaliana, UniProt Q3ED68 1-397); assay: pull-down; purified proteins mixed in GST-tag lysis buffer (20 mM Tris-HCl pH 7.5, 150 mM NaCl, 1 mM DTT) at 4 °C for 1 h, then GST or MBP beads; immunoblot with GST, MBP or His antibody; details: both partners purified
T1 construct: ICU11, Arabidopsis thaliana, AT1G22950; full length in pGEX6P-1 (GST) or pET-30a (MBP); source: E. coli BL21, purified (GST beads or MBP beads); not shown: GST or MBP (both forms were made)
T1 sequence (looked up): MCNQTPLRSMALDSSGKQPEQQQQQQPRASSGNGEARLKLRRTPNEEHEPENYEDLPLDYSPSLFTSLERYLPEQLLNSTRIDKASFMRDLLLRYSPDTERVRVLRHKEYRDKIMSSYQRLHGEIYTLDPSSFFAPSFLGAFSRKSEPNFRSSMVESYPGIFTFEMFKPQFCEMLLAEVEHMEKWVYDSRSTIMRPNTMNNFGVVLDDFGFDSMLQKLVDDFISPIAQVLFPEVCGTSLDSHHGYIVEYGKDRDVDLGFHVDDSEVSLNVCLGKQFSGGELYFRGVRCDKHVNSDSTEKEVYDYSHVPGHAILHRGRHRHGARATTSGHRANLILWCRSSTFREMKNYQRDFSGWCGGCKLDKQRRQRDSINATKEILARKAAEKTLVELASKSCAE

[2] = target: T2, ICU11-GST, recombinant (gel filtration) (Arabidopsis thaliana, UniProt Q3ED68 1-397); assay: SEC; purified proteins mixed in equivalent molar amounts, 4 °C overnight, Superose 6 10/300GL; fractions detected by immunoblotting (GST, FLAG, MBP, HIS); details: both partners purified
T2 construct: ICU11, Arabidopsis thaliana, AT1G22950; full length in pGEX6P-1; May be the same construct as m20 in some pull-downs; source: E. coli BL21, purified (GST beads)
T2 sequence (looked up): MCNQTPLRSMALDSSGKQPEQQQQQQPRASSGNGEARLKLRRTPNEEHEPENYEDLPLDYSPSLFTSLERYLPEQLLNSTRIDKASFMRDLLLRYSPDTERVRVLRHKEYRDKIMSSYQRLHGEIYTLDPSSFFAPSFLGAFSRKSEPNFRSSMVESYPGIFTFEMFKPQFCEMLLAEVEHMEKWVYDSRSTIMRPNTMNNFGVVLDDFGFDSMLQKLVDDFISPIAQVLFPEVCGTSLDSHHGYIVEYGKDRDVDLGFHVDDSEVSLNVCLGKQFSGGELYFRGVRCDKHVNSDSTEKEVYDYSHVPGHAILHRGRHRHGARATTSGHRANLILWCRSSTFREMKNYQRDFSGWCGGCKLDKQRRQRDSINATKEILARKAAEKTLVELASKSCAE

TRB1;NAC050-N [3] = target: T3, TRB1;NAC050-N (Arabidopsis thaliana;Arabidopsis …, UniProt Q8VWK4;Q9SQX9 1-300;1-184, |); assay: ITC; enhanced vs TRB1 alone; Kd only in figure; EMSA: 10 mM Tris-HCl pH 7.5, 50 mM NaCl, 1 mM EDTA, 5% glycerol, 1 mM DTT, 25 C, 30 min, 20 ng DNA + 1 ug protein; ITC: 20 mM Tris-HCl pH 7.5, 150 mM NaCl, 25 C, 5 uM protein, 100 uM DNA; details: protein: recombinant;recombinant; tags: His;MBP; blunt
T3 sequence 1: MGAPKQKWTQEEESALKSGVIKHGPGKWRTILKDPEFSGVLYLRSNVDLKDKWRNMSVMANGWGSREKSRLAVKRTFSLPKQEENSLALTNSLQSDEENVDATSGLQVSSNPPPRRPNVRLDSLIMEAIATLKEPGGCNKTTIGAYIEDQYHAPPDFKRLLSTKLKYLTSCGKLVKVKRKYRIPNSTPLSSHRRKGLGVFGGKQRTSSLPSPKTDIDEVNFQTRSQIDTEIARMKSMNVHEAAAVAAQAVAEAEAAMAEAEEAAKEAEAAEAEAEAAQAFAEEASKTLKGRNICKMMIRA
T3 sequence 2: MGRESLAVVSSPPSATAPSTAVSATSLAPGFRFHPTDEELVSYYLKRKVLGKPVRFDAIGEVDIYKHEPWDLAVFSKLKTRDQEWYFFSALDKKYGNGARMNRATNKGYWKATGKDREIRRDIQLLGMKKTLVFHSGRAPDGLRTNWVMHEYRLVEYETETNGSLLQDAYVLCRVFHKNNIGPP

TRB1;HTH1 [4] = target: T4, TRB1;HTH1 (Arabidopsis thaliana;Arabidopsis …, UniProt Q8VWK4;Q9SHL4 1-300;1-275, |); assay: as above; details: protein: recombinant;recombinant; tags: His;His or MBP (EMSA construct not specified); blunt
T4 sequence 1: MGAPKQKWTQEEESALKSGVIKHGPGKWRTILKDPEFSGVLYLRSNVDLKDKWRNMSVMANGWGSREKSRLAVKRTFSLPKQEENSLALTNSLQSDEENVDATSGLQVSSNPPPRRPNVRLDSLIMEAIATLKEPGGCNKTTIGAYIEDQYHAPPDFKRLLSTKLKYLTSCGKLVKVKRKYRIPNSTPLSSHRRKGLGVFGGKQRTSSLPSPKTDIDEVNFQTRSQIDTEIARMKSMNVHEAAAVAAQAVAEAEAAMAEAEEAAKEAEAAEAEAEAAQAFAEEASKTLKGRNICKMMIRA
T4 sequence 2: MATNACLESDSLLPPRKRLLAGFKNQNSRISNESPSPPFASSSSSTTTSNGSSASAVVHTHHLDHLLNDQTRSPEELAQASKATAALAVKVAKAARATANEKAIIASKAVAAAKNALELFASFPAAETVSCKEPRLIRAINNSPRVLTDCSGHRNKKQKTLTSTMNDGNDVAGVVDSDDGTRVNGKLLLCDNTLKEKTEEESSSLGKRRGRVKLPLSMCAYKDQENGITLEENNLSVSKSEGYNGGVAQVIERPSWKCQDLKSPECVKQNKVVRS

TRB1 = target: T5, TRB1 (Arabidopsis thaliana, UniProt Q8VWK4 1-300); assay: EMSA; EMSA: 10 mM Tris-HCl pH 7.5, 50 mM NaCl, 1 mM EDTA, 5% glycerol, 1 mM DTT, 25 C, 30 min, 20 ng DNA + 1 ug protein; ITC: 20 mM Tris-HCl pH 7.5, 150 mM NaCl, 25 C, 5 uM protein, 100 uM DNA; details: protein: recombinant; tags: His; label: Cy5 at 5' of strand 1; blunt
T5 sequence: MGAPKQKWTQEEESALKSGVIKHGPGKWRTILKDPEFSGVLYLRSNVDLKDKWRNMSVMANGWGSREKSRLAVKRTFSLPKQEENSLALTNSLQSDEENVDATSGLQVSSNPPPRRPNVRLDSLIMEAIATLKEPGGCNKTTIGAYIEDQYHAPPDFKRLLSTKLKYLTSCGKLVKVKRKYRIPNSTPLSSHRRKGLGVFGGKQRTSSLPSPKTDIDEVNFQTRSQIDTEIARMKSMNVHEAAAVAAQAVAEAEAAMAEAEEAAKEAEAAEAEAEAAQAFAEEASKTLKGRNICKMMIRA

TRB1-GH1Δ = target: T6, TRB1-GH1Δ (Arabidopsis thaliana, UniProt Q8VWK4 1-300, del114-185); assay: as above; details: protein: recombinant; label: Cy5 at 5' of strand 1; blunt
T6 sequence: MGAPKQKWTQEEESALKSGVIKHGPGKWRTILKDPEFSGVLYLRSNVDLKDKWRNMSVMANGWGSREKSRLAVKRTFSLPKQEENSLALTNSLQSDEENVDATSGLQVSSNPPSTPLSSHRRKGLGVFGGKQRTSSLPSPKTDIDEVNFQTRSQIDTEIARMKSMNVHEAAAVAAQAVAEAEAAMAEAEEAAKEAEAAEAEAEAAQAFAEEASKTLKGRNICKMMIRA

TRB3 = target: T7, TRB3 (Arabidopsis thaliana, UniProt Q9M2X3 1-295); assay: as above; details: protein: recombinant; tags: His; label: Cy5 at 5' of strand 1; blunt
T7 sequence: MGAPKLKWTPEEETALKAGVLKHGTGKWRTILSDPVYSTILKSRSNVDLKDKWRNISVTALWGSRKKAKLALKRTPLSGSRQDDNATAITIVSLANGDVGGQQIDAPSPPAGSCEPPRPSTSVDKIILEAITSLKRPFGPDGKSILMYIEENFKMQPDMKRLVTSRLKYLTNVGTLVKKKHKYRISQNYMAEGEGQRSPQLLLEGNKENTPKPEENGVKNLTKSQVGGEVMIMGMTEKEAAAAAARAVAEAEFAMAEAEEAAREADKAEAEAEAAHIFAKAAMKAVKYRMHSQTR

TRB1-1 = target: T8, TRB1-1 (Arabidopsis thaliana, UniProt Q8VWK4 1-185); assay: as above; details: protein: recombinant; tags: His; label: Cy5 at 5' of strand 1; blunt
T8 sequence: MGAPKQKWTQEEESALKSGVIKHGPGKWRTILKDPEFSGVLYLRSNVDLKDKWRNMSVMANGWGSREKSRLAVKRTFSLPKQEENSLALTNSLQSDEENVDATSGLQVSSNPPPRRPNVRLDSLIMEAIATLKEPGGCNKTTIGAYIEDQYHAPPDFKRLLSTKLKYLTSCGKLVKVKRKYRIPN

TRB2 = target: T9, TRB2 (Arabidopsis thaliana, UniProt Q9FJW5 1-299); assay: as above; details: protein: recombinant; tags: His; label: Cy5 at 5' of strand 1; blunt
T9 sequence: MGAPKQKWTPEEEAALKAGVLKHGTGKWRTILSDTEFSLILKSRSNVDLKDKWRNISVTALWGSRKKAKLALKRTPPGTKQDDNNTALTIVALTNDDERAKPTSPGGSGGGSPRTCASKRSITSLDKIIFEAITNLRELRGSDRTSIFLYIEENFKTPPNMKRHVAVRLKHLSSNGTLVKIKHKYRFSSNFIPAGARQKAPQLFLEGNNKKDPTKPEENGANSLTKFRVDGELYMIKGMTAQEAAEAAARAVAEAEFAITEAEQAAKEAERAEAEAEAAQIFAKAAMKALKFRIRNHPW

TRB1-MybΔ-GH1Δ = target: T10, TRB1-MybΔ-GH1Δ (Arabidopsis thaliana, UniProt Q8VWK4 61-300, del1-60;del114-185); assay: as above; details: protein: recombinant; label: Cy5 at 5' of strand 1; blunt
T10 sequence: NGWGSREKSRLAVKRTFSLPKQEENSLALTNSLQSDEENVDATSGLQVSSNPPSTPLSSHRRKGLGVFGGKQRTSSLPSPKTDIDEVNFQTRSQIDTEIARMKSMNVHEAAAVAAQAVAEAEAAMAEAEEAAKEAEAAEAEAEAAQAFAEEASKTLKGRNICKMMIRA

TRB1;NAC050-N [5] = target: T3, TRB1;NAC050-N; assay: EMSA; larger complex, enhanced vs TRB1 alone; EMSA: 10 mM Tris-HCl pH 7.5, 50 mM NaCl, 1 mM EDTA, 5% glycerol, 1 mM DTT, 25 C, 30 min, 20 ng DNA + 1 ug protein; ITC: 20 mM Tris-HCl pH 7.5, 150 mM NaCl, 25 C, 5 uM protein, 100 uM DNA; details: protein: recombinant;recombinant; tags: His;MBP; label: Cy5 at 5' of strand 1; blunt
TRB1;HTH1 [6] = target: T4, TRB1;HTH1; assay: as above; details: protein: recombinant;recombinant; tags: His;His or MBP (EMSA construct not specified); label: Cy5 at 5' of strand 1; blunt

B1: TRB1-His, recombinant (natural protein, Arabidopsis thaliana, UniProt Q8VWK4 1-300, looked up)
chain: MGAPKQKWTQEEESALKSGVIKHGPGKWRTILKDPEFSGVLYLRSNVDLKDKWRNMSVMANGWGSREKSRLAVKRTFSLPKQEENSLALTNSLQSDEENVDATSGLQVSSNPPPRRPNVRLDSLIMEAIATLKEPGGCNKTTIGAYIEDQYHAPPDFKRLLSTKLKYLTSCGKLVKVKRKYRIPNSTPLSSHRRKGLGVFGGKQRTSSLPSPKTDIDEVNFQTRSQIDTEIARMKSMNVHEAAAVAAQAVAEAEAAMAEAEEAAKEAEAAEAEAEAAQAFAEEASKTLKGRNICKMMIRA
notes: TRB1, Arabidopsis thaliana, AT1G49950; full length in the vector pSMT3; pSMT3 is recalled to add an N-terminal His-SUMO; source: E. coli BL21, purified (His beads)
**Q.** What does the source list for B1?
**A.** binding result [1]: binds; binding result [2]: binds

B2: Probe 1 for ITC (dsDNA)
DNA 1: ATCGAATTTAGGGCAAAATG
DNA 2: CATTTTGCCCTAAATTCGAT
**Q.** Does B2 bind (TRB1;NAC050-N [3])?
**A.** Result: binds

**Q.** Does B2 bind (TRB1;HTH1 [4])?
**A.** Result: binds

B3: Probe 1 (P1) (dsDNA)
DNA 1: ATCGAATTTAGGGCAAAATG
DNA 2: CATTTTGCCCTAAATTCGAT
**Q.** Does B3 bind (TRB1)?
**A.** Result: binds

**Q.** Does B3 bind (TRB1-GH1Δ)?
**A.** Result: binds

**Q.** Does B3 bind (TRB3)?
**A.** Result: binds

**Q.** Does B3 bind (TRB1-1)?
**A.** Result: binds

**Q.** Does B3 bind (TRB2)?
**A.** Result: binds

**Q.** Does B3 bind (TRB1-MybΔ-GH1Δ)?
**A.** Result: no binding

**Q.** Does B3 bind (TRB1;NAC050-N [5])?
**A.** Result: binds

**Q.** Does B3 bind (TRB1;HTH1 [6])?
**A.** Result: binds
